Assays:
[1] = molecular target: FcRn (neonatal Fc receptor); assay: FcRn affinity chromatography, pH gradient elution; retention time compared to protein standards with known affinities
Experimental: FcRn was expressed, purified and biotinylated as described (Schlothauer et al., MAbs (2013) 5(4), 576-86). For coupling, the prepared receptor was added to streptavidin-sepharose (GE Healthcare). The resulting FcRn-sepharose matrix was packed in a column housing. The column was equilibrated with 20 mM 2-(N-morpholine)-ethanesulfonic acid (MES), 140 mM NaCl, pH 5.5 (eluent A) at a 0.5 ml/min flow rate. 30 μg of antibody samples were diluted at a volume ratio of 1:1 with eluent A and applied to the FcRn column. The column was washed with 5 column volumes of eluent A followed by elution with a linear gradient from 20 to 100% 20 mM Tris/HCl, 140 mM NaCl, pH 8.8 (eluent B) in 35 column volumes. The analysis was performed with a column oven at 25° C. The elution profile was monitored by continuous measurement of the absorbance at 280 nm. Retention times were compared to protein standards with known affinities.

[2] = molecular target: T1, human STEAP-1 (six-transmembrane epithelial antigen of prostate 1) (human, UniProt Q9UHE8 1-339); assay: cell-based ELISA on CHO-K1 cells stably expressing human STEAP1; binding EC50 of the stressed sample against the untreated sample x100
T1 construct: Full-length human STEAP1 stably expressed on CHO-K1 cells (CHO-hSTEAP1); endogenous on LnCAP and 22Rv1 cells in the functional assays; also called hSTEAP-1
T1 sequence (Q9UHE8 whole entry): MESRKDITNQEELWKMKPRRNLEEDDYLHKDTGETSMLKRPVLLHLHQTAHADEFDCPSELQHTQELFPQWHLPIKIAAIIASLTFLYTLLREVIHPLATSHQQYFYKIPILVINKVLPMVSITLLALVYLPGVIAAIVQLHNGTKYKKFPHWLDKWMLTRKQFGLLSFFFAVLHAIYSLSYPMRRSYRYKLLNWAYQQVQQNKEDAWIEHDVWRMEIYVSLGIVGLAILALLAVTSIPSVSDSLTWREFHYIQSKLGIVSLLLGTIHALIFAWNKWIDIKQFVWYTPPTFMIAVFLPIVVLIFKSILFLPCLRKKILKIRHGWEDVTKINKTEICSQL
Experimental: Characterization of Binding Potency After Stress Using a Cell-Based ELISA To quantify the reduction in binding potency caused by 1-4 weeks stress at either pH 7.4 or 6.0, a cell-based ELISA was employed using CHO-K1 cells stably expressing human STEAP1. For this cell-based ELISA, 10,000 cells were seeded per well of a 96-well plate and incubated for 18 h at 37° C., 5% CO₂. Supernatant was removed using an automated washer (BIOTEK), and 100 μl of a dilution series (10 pM-30 nM) of antibody constructs in growth medium was added to each well. After 1 h of incubation at 4° C., wells were emptied and 100 μl of 0.05% glutaraldehyde in PBS added for 10 min at RT. After 4 washes with PBS/0.025% Tween20 (PBST), 100 μl of anti-human-IgG-HRP (Jackson) diluted 1:20000 in Blocking buffer (Roche) was added and plates incubated for 1 h at room temperature (RT). Wells were washed 6 times with PBST and signal was generated using 100 μl of TMB per well, the reaction stopped after 10 minutes with 50 μl 1 M HCl and absorbance measured at 450 nm. Data (Table 4) were expressed as “% binding”, dividing the binding EC50 of the stressed sample by that of the untreated sample multiplied by 100.

[3] = molecular target: T1, human STEAP-1 (six-transmembrane …); assay: flow cytometry on CHO-K1 cells stably transfected with full-length human STEAP1, PerCP anti-human IgG secondary
Excerpt: A gene encoding full-length human STEAP1 was subcloned into mammalian expression vector. The plasmid was transfected into CHO-K1 (ATCC CRL-9618) cells using Lipofectamine LTX Reagent according to the manufacturer's protocol (Invitrogen, #15338100). Stably transfected STEAP1-positive CHO cells were maintained in DMEM/F-12 medium (Gibco, #11320033) supplemented with 10% fetal bovine serum (Gibco, #16140063) and 1% GlutaMAX Supplement (Gibco; #31331-028). Two days after transfection, puromycin (Invivogen; #ant-pr-1) was added to 6 μg/mL and the cells were cultured for several passages. After initial selection, the cells with the highest cell surface expression of STEAP1 were sorted by BD FACSAria II cell sorter (BD Biosciences) and cultured to establish stable cell clones. The expression level and stability was confirmed by FACS analysis using vandortuzumab and PerCP-conjugated Fc gamma-specific goat anti-human IgG (Jackson ImmunoResearch, #109-126-097) as secondary antibody over a period of 4 weeks.

FcRn (neonatal Fc receptor), sequence (P55899 24-297, chain 1 of 2): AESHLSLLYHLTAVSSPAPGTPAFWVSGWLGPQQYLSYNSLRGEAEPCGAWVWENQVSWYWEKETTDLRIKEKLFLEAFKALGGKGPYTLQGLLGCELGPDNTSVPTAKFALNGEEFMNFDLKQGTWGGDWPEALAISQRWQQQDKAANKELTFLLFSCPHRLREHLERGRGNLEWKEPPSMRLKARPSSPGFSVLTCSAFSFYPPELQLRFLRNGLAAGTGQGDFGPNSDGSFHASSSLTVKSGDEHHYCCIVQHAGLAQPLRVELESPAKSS
FcRn (neonatal Fc receptor), sequence (P61769 21-119, chain 2 of 2, further chain): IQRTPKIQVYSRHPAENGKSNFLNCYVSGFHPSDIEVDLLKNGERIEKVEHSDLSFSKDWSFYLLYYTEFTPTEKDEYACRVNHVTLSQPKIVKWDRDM

B1: Molecule A: 2+1 IgG CrossFab inverted anti-STEAP1/anti-CD3 T cell bispecific (TCB) antibody with the vandortuzumab variable domains (bispecific antibody)
heavy 1: EVQLVESGGGLVQPGGSLRLSCAVSGYSITSDYAWNWVRQAPGKGLEWVGYISNSGSTSYNPSLKSRFTISRDTSKNTLYLQMNSLRAEDTAVYYCARERNYDYDDYYYAMDYWGQGTLVTVSSASTKGPSVFPLAPSSKSTSGGTAALGCLVEDYFPEPVTVSWNSGALTSGVHTFPAVLQSSGLYSLSSVVTVPSSSLGTQTYICNVNHKPSNTKVDEKVEPKSCDKTHTCPPCPAPEAAGGPSVFLFPPKPKDTLMISRTPEVTCVVVDVSHEDPEVKFNWYVDGVEVHNAKTKPREEQYNSTYRVVSVLTVLHQDWLNGKEYKCKVSNKALGAPIEKTISKAKGQPREPQVCTLPPSRDELTKNQVSLSCAVKGFYPSDIAVEWESNGQPENNYKTTPPVLDSDGSFFLVSKLTVDKSRWQQGNVFSCSVMHEALHNHYTQKSLSLSP
heavy 2: not shown
light 1: DIQMTQSPSSLSASVGDRVTITCKSSQSLLYRSNQKNYLAWYQQKPGKAPKLLIYWASTRESGVPSRFSGSGSGTDFTLTISSLQPEDFATYYCQQYYNYPRTFGQGTKVEIKRTVAAPSVFIFPPSDRKLKSGTASVVCLLNNFYPREAKVQWKVDNALQSGNSQESVTEQDSKDSTYSLSSTLTLSKADYEKHKVYACEVTHQGLSSPVTKSFNRGEC
light 2: EVQLLESGGGLVQPGGSLRLSCAASGFTFSTYAMNWVRQAPGKGLEWVSRIRSKYNNYATYYADSVKGRFTISRDDSKNTLYLQMNSLRAEDTAVYYCVRHGNFGNSYVSWFAYWGQGTLVTVSSASVAAPSVFIFPPSDEQLKSGTASVVCLLNNFYPREAKVQWKVDNALQSGNSQESVTEQDSKDSTYSLSSTLTLSKADYEKHKVYACEVTHQGLSSPVTKSFNRGEC
notes: Two STEAP1 Fabs (charge modifications EE/RK) and one CD3 CrossFab (VH/VL exchange), human IgG1 Fc with knob-into-hole and PGLALA; also called STEAP-1 TCB antibody
B1 was tested, and the FcRn affinity [1] was 0.61 and the “Relative binding potency (%) (after 28 days at 40° C., pH 6)” value (shortened to “Relative binding potency (%)”) [2] was 66%.

B2: Molecule D: 2+1 IgG CrossFab inverted anti-STEAP1/anti-CD3 TCB antibody, D100aE/D100bE mutations in both STEAP1 binding moieties (bispecific antibody)
heavy 1: EVQLVESGGGLVQPGGSLRLSCAVSGYSITSDYAWNWVRQAPGKGLEWVGYISNSGSTSYNPSLKSRFTISRDTSKNTLYLQMNSLRAEDTAVYYCARERNYDYEEYYYAMDYWGQGTLVTVSSASTKGPSVFPLAPSSKSTSGGTAALGCLVEDYFPEPVTVSWNSGALTSGVHTFPAVLQSSGLYSLSSVVTVPSSSLGTQTYICNVNHKPSNTKVDEKVEPKSCDKTHTCPPCPAPEAAGGPSVFLFPPKPKDTLMISRTPEVTCVVVDVSHEDPEVKFNWYVDGVEVHNAKTKPREEQYNSTYRVVSVLTVLHQDWLNGKEYKCKVSNKALGAPIEKTISKAKGQPREPQVCTLPPSRDELTKNQVSLSCAVKGFYPSDIAVEWESNGQPENNYKTTPPVLDSDGSFFLVSKLTVDKSRWQQGNVFSCSVMHEALHNHYTQKSLSLSP
heavy 2: not shown
light 1: DIQMTQSPSSLSASVGDRVTITCKSSQSLLYRSNQKNYLAWYQQKPGKAPKLLIYWASTRESGVPSRFSGSGSGTDFTLTISSLQPEDFATYYCQQYYNYPRTFGQGTKVEIKRTVAAPSVFIFPPSDRKLKSGTASVVCLLNNFYPREAKVQWKVDNALQSGNSQESVTEQDSKDSTYSLSSTLTLSKADYEKHKVYACEVTHQGLSSPVTKSFNRGEC
light 2: EVQLLESGGGLVQPGGSLRLSCAASGFTFSTYAMNWVRQAPGKGLEWVSRIRSKYNNYATYYADSVKGRFTISRDDSKNTLYLQMNSLRAEDTAVYYCVRHGNFGNSYVSWFAYWGQGTLVTVSSASVAAPSVFIFPPSDEQLKSGTASVVCLLNNFYPREAKVQWKVDNALQSGNSQESVTEQDSKDSTYSLSSTLTLSKADYEKHKVYACEVTHQGLSSPVTKSFNRGEC
notes: Same format as Molecule A; also called STEAP-1 TCB antibody variant (EE)
B2 was tested, and the FcRn affinity [1] was 0.65 and the “Relative binding potency (%)” value [2] was 100%.

B3: Molecule B: 2+1 IgG CrossFab inverted anti-STEAP1/anti-CD3 TCB antibody, D100aE mutation in both STEAP1 binding moieties (bispecific antibody)
heavy 1: EVQLVESGGGLVQPGGSLRLSCAVSGYSITSDYAWNWVRQAPGKGLEWVGYISNSGSTSYNPSLKSRFTISRDTSKNTLYLQMNSLRAEDTAVYYCARERNYDYEDYYYAMDYWGQGTLVTVSSASTKGPSVFPLAPSSKSTSGGTAALGCLVEDYFPEPVTVSWNSGALTSGVHTFPAVLQSSGLYSLSSVVTVPSSSLGTQTYICNVNHKPSNTKVDEKVEPKSCDKTHTCPPCPAPEAAGGPSVFLFPPKPKDTLMISRTPEVTCVVVDVSHEDPEVKFNWYVDGVEVHNAKTKPREEQYNSTYRVVSVLTVLHQDWLNGKEYKCKVSNKALGAPIEKTISKAKGQPREPQVCTLPPSRDELTKNQVSLSCAVKGFYPSDIAVEWESNGQPENNYKTTPPVLDSDGSFFLVSKLTVDKSRWQQGNVFSCSVMHEALHNHYTQKSLSLSP
heavy 2: not shown
light 1: DIQMTQSPSSLSASVGDRVTITCKSSQSLLYRSNQKNYLAWYQQKPGKAPKLLIYWASTRESGVPSRFSGSGSGTDFTLTISSLQPEDFATYYCQQYYNYPRTFGQGTKVEIKRTVAAPSVFIFPPSDRKLKSGTASVVCLLNNFYPREAKVQWKVDNALQSGNSQESVTEQDSKDSTYSLSSTLTLSKADYEKHKVYACEVTHQGLSSPVTKSFNRGEC
light 2: EVQLLESGGGLVQPGGSLRLSCAASGFTFSTYAMNWVRQAPGKGLEWVSRIRSKYNNYATYYADSVKGRFTISRDDSKNTLYLQMNSLRAEDTAVYYCVRHGNFGNSYVSWFAYWGQGTLVTVSSASVAAPSVFIFPPSDEQLKSGTASVVCLLNNFYPREAKVQWKVDNALQSGNSQESVTEQDSKDSTYSLSSTLTLSKADYEKHKVYACEVTHQGLSSPVTKSFNRGEC
notes: Same format as Molecule A; also called STEAP-1 TCB antibody variant (ED)
With B3 the FcRn affinity [1] was 0.69 and the “Relative binding potency (%)” value [2] was 79%.

B4: Molecule C: 2+1 IgG CrossFab inverted anti-STEAP1/anti-CD3 TCB antibody, D100bE mutation in both STEAP1 binding moieties (bispecific antibody)
heavy 1: EVQLVESGGGLVQPGGSLRLSCAVSGYSITSDYAWNWVRQAPGKGLEWVGYISNSGSTSYNPSLKSRFTISRDTSKNTLYLQMNSLRAEDTAVYYCARERNYDYDEYYYAMDYWGQGTLVTVSSASTKGPSVFPLAPSSKSTSGGTAALGCLVEDYFPEPVTVSWNSGALTSGVHTFPAVLQSSGLYSLSSVVTVPSSSLGTQTYICNVNHKPSNTKVDEKVEPKSCDKTHTCPPCPAPEAAGGPSVFLFPPKPKDTLMISRTPEVTCVVVDVSHEDPEVKFNWYVDGVEVHNAKTKPREEQYNSTYRVVSVLTVLHQDWLNGKEYKCKVSNKALGAPIEKTISKAKGQPREPQVCTLPPSRDELTKNQVSLSCAVKGFYPSDIAVEWESNGQPENNYKTTPPVLDSDGSFFLVSKLTVDKSRWQQGNVFSCSVMHEALHNHYTQKSLSLSP
heavy 2: not shown
light 1: DIQMTQSPSSLSASVGDRVTITCKSSQSLLYRSNQKNYLAWYQQKPGKAPKLLIYWASTRESGVPSRFSGSGSGTDFTLTISSLQPEDFATYYCQQYYNYPRTFGQGTKVEIKRTVAAPSVFIFPPSDRKLKSGTASVVCLLNNFYPREAKVQWKVDNALQSGNSQESVTEQDSKDSTYSLSSTLTLSKADYEKHKVYACEVTHQGLSSPVTKSFNRGEC
light 2: EVQLLESGGGLVQPGGSLRLSCAASGFTFSTYAMNWVRQAPGKGLEWVSRIRSKYNNYATYYADSVKGRFTISRDDSKNTLYLQMNSLRAEDTAVYYCVRHGNFGNSYVSWFAYWGQGTLVTVSSASVAAPSVFIFPPSDEQLKSGTASVVCLLNNFYPREAKVQWKVDNALQSGNSQESVTEQDSKDSTYSLSSTLTLSKADYEKHKVYACEVTHQGLSSPVTKSFNRGEC
notes: Same format as Molecule A; also called STEAP-1 TCB antibody variant (DE)
B4 was tested, and the “Relative binding potency (%)” value [2] was 69%.

B5: vandortuzumab (antibody, V domains shown)
VH: EVQLVESGGGLVQPGGSLRLSCAVSGYSITSDYAWNWVRQAPGKGLEWVGYISNSGSTSYNPSLKSRFTISRDTSKNTLYLQMNSLRAEDTAVYYCARERNYDYDDYYYAMDYWGQGTLVTVSS
VL: DIQMTQSPSSLSASVGDRVTITCKSSQSLLYRSNQKNYLAWYQQKPGKAPKLLIYWASTRESGVPSRFSGSGSGTDFTLTISSLQPEDFATYYCQQYYNYPRTFGQGTKVEIK
B5: binds [3].

From patent publication US20240279355A1 (Hoffmann-La Roche, published 2024)
